Reference: US11499162B2, “Plants having increased tolerance to herbicides” (BASF SE, priority 2016, dated 2022)
Numbering of substitutions follows the chain as printed. In names and notes the source's numbering stands.

B1: F157T: mutated TriA variant of SEQ ID NO: 2 (protein)
chain: MQTLSIQHGTLVTMDQYRRVLGDSWVHVQDGRIVALGVHAESVPPPADRVIDARGKVVLPGFINAHTHVNQILLRGGPSHGRQLYDWLFNVLYPGQKAMRPEDVAVAVRLYCAEAVRSGITTINDNADSAIYPGNIEAAMAVYGEVGVRVVYARMFTDRMDGRIQGYVDALKARSPQVELCSIMEETAVAKDRITALSDQYHGTAGGRISVWPAPAITPAVTVEGMRWAQAFARDRAVMWTLHMAESDHDERLHWMSPAEYMECYGLLDERLQVAHCVYFDRKDVRLLHRHNVKVASQVVSNAYLGSGVAPVPEMVERGMAVGIGTDDGNCNDSVNMIGDMKFMAHIHRAVHRDADVLTPEKILEMATIDGARSLGMDHEIGSIETGKRADLILLDLRHPQTTPHHHLAATIVFQAYGNEVDTVLIDGNVVMENRRLSFLPPERELAFLEEAQSRATAILQRANMVANPAWRSL
modifications: Pseudomonas
B2: L88AF157I: mutated TriA variant of SEQ ID NO: 2 (protein)
chain: B1 chain with L88A, T157I
modifications: Pseudomonas
B3: L88VL92V: mutated TriA variant of SEQ ID NO: 2 (protein)
chain: B1 chain with L88V, L92V, T157F
modifications: Pseudomonas
B4: N70VQ71L92VM155AF157A: mutated TriA variant of SEQ ID NO: 2 (protein)
chain: B1 chain with N70V, Q71L, L92V, M155A, T157A
modifications: Pseudomonas
B5: N70LQ71ID128IM155VF157L: mutated TriA variant of SEQ ID NO: 2 (protein)
chain: B1 chain with N70L, Q71I, D128I, M155V, T157L
modifications: Pseudomonas
B6: N70LQ71IL74A: mutated TriA variant of SEQ ID NO: 2 (protein)
chain: B1 chain with N70L, Q71I, L74A, T157F
modifications: Pseudomonas
B7: L88VL92VF157A: mutated TriA variant of SEQ ID NO: 2 (protein)
chain: B1 chain with L88V, L92V, T157A
modifications: Pseudomonas
B8: R82M: mutated TriA variant of SEQ ID NO: 2 (protein)
chain: B1 chain with R82M, T157F
modifications: Pseudomonas
B9: Q96D: mutated TriA variant of SEQ ID NO: 2 (protein)
chain: B1 chain with Q96D, T157F
modifications: Pseudomonas
B10: Q71LV91A: mutated TriA variant of SEQ ID NO: 2 (protein)
chain: B1 chain with Q71L, V91A, T157F
modifications: Pseudomonas
B11: L74A: mutated TriA variant of SEQ ID NO: 2 (protein)
chain: B1 chain with L74A, T157F
modifications: Pseudomonas
B12: L88VL92IF157V: mutated TriA variant of SEQ ID NO: 2 (protein)
chain: B1 chain with L88V, L92I, T157V
modifications: Pseudomonas
B13: V69A: mutated TriA variant of SEQ ID NO: 2 (protein)
chain: B1 chain with V69A, T157F
modifications: Pseudomonas
B14: Q96E: mutated TriA variant of SEQ ID NO: 2 (protein)
chain: B1 chain with Q96E, T157F
modifications: Pseudomonas
B15: N70LQ71LF157A: mutated TriA variant of SEQ ID NO: 2 (protein)
chain: B1 chain with N70L, Q71L, T157A
modifications: Pseudomonas
B16: R82G: mutated TriA variant of SEQ ID NO: 2 (protein)
chain: B1 chain with R82G, T157F
modifications: Pseudomonas
B17: Q71LL88AV91AL92VF157L: mutated TriA variant of SEQ ID NO: 2 (protein)
chain: B1 chain with Q71L, L88A, V91A, L92V, T157L
modifications: Pseudomonas
B18: Q71LL88AV91AL92V: mutated TriA variant of SEQ ID NO: 2 (protein)
chain: B1 chain with Q71L, L88A, V91A, L92V, T157F
modifications: Pseudomonas
B19: L74V: mutated TriA variant of SEQ ID NO: 2 (protein)
chain: B1 chain with L74V, T157F
modifications: Pseudomonas
B20: N70IQ71IF157A: mutated TriA variant of SEQ ID NO: 2 (protein)
chain: B1 chain with N70I, Q71I, T157A
modifications: Pseudomonas
B21: L88AF157L: mutated TriA variant of SEQ ID NO: 2 (protein)
chain: B1 chain with L88A, T157L
modifications: Pseudomonas
B22: L88VL92I: mutated TriA variant of SEQ ID NO: 2 (protein)
chain: B1 chain with L88V, L92I, T157F
modifications: Pseudomonas
B23: N70IQ71L92VM155AF157A: mutated TriA variant of SEQ ID NO: 2 (protein)
chain: B1 chain with N70I, Q71L, L92V, M155A, T157A
modifications: Pseudomonas
B24: V69L: mutated TriA variant of SEQ ID NO: 2 (protein)
chain: B1 chain with V69L, T157F
modifications: Pseudomonas
B25: Q71LV91AL92V: mutated TriA variant of SEQ ID NO: 2 (protein)
chain: B1 chain with Q71L, V91A, L92V, T157F
modifications: Pseudomonas
B26: V69S: mutated TriA variant of SEQ ID NO: 2 (protein)
chain: B1 chain with V69S, T157F
modifications: Pseudomonas
B27: Q96V: mutated TriA variant of SEQ ID NO: 2 (protein)
chain: B1 chain with Q96V, T157F
modifications: Pseudomonas
B28: R82L: mutated TriA variant of SEQ ID NO: 2 (protein)
chain: B1 chain with R82L, T157F
modifications: Pseudomonas
B29: N70LQ71ID128IM155V: mutated TriA variant of SEQ ID NO: 2 (protein)
chain: B1 chain with N70L, Q71I, D128I, M155V, T157F
modifications: Pseudomonas

Assay type: biochemical
Conditions: pH 7.2
Summary of the method: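 % degradation measured against empty-vector control by UPLC-HR-MS, with product identity confirmed by exact mass and MS-MS. Conditions: 25 mM sodium phosphate pH 7.2, 30 °C, substrates at 1–10 nM. Enzyme source: TriA-expressing E. coli resting cells incubated with azines, melamine or atrazine.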

Degradation in % of 6-cyclopentyl-N4-(2,3,4,5,6-pentafluorophenyl)-1,3,5-triazine-2,4-diamine, 4%:
B9

Degradation in % of 6-cyclopentyl-N4-(2,3,4,5,6-pentafluorophenyl)-1,3,5-triazine-2,4-diamine, 3%:
B20, B25, B26

Degradation in % of 6-cyclopentyl-N4-(2,3,4,5,6-pentafluorophenyl)-1,3,5-triazine-2,4-diamine, 0%:
B1, B2, B3, B5, B6, B7, B10, B12, B13, B14, B15, B16, B19, B21, B22, B24, B27, B29

Degradation in % of 6-cyclopentyl-N4-(2,3,4,5,6-pentafluorophenyl)-1,3,5-triazine-2,4-diamine, 2%:
B8

Degradation in % of 6-cyclopentyl-N4-(2,3,4,5,6-pentafluorophenyl)-1,3,5-triazine-2,4-diamine, 1%:
B4, B11, B17, B18, B23, B28

Degradation in % of Melamine, 2%:
B6, B8, B15, B21

Degradation in % of Melamine, 7%:
B25

Degradation in % of Melamine, 60%:
B1

Degradation in % of Melamine, 3%:
B5, B19

Degradation in % of Melamine, 9%:
B29

Degradation in % of Melamine, 0%:
B2, B3, B4, B7, B9, B10, B11, B14, B16, B18, B20, B23, B24

Degradation in % of Melamine, 4%:
B17, B27

Degradation in % of Melamine, 5%:
B12, B13, B26

Degradation in % of Melamine, 1%:
B28

Degradation in % of Melamine, 8%:
B22
